Laboratory results as given in PMC3335016, “Analysis of the Nse3/MAGE-Binding Domain of the Nse4/EID Family Proteins” (PLoS ONE, 2012).

Key:
Assay in all cases: ELISA; PEPSCAN ELISA; biotinylated EID2 peptides (400 nM) on streptavidin-coated plates; His-S-MAGEC2(129-339) 200–400 nM, 4°C overnight; anti-His detection
Conditions in all cases: both partners purified
[1] = target: T1, EID2 peptide #17 (L214A) (human, L214A (stands in the printed letters), biotin, linked via the SGSG spacer)
T1 construct: source: synthetic peptide (Mimotopes)
T1 peptide: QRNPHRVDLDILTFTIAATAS

[2] = target: T2, EID2 peptide #11 (I207A) (human, I207A (stands in the printed letters), biotin, linked via the SGSG spacer)
T2 construct: source: synthetic peptide (Mimotopes)
T2 peptide: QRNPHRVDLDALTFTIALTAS

[3] = target: T3, EID2 peptide #9 (L205A) (human, L205A (stands in the printed letters), biotin, linked via the SGSG spacer)
T3 construct: source: synthetic peptide (Mimotopes)
T3 peptide: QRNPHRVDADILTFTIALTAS

[4] = target: T4, EID2 peptide #18 (T215A) (human, T215A (stands in the printed letters), biotin, linked via the SGSG spacer)
T4 construct: source: synthetic peptide (Mimotopes)
T4 peptide: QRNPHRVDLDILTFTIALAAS

[5] = target: T5, EID2 peptide #10 (D206A) (human, D206A (stands in the printed letters), biotin, linked via the SGSG spacer)
T5 construct: source: synthetic peptide (Mimotopes)
T5 peptide: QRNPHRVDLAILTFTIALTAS

[6] = target: T6, EID2 peptide #19 (S217A) (human, S217A (stands in the printed letters), biotin, linked via the SGSG spacer)
T6 construct: source: synthetic peptide (Mimotopes)
T6 peptide: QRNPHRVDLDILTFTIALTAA

[7] = target: T7, EID2 peptide #2 (R198A) (human, R198A (stands in the printed letters), biotin, linked via the SGSG spacer)
T7 construct: source: synthetic peptide (Mimotopes)
T7 peptide: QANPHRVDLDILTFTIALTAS

[8] = target: T8, EID2 peptide #14 (F210A) (human, F210A (stands in the printed letters), biotin, linked via the SGSG spacer)
T8 construct: source: synthetic peptide (Mimotopes)
T8 peptide: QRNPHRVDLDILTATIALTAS

[9] = target: T9, EID2 peptide #12 (L208A) (human, L208A (stands in the printed letters), biotin, linked via the SGSG spacer)
T9 construct: source: synthetic peptide (Mimotopes)
T9 peptide: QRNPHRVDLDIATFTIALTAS

[10] = target: T10, EID2 peptide #16 (I212A) (human, I212A (stands in the printed letters), biotin, linked via the SGSG spacer)
T10 construct: source: synthetic peptide (Mimotopes)
T10 peptide: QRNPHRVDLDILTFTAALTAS

[11] = target: T11, EID2 peptide #6 (R202A) (human, R202A (stands in the printed letters), biotin, linked via the SGSG spacer)
T11 construct: source: synthetic peptide (Mimotopes)
T11 peptide: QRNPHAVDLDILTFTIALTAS

[12] = target: T12, EID2 peptide #1 (Q197A) (human, Q197A (stands in the printed letters), biotin, linked via the SGSG spacer)
T12 construct: source: synthetic peptide (Mimotopes)
T12 peptide: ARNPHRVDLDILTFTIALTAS

B1: His-S-MAGEC2(129-339) (domain or fragment, human, UniProt Q9UBF1 129-339, looked up)
chain: GLPDSESSFTYTLDEKVAELVEFLLLKYEAEEPVTEAEMLMIVIKYKDYFPVILKRAREFMELLFGLALIEVGPDHFCVFANTVGLTDEGSDDEGMPENSLLIIILSVIFIKGNCASEEVIWEVLNAVGVYAGREHFVYGEPRELLTKVWVQGHYLEYREVPHSSPPYYEFLWGPRAHSESIKKKVLEFLAKLNNTVPSSFPSWYKDALKD
notes: source: E. coli C41, purified (His-TRAP column, FPLC)
**Q.** How did the “percent of WT affinity” value [1] turn out when B1 was run?
**A.** < 20 % of WT affinity

**Q.** And the “percent of wt binding affinity” value [2]?
**A.** ~30 % of wt

**Q.** And the “percent of wt binding affinity” value [3]?
**A.** ~30 % of wt

**Q.** And the “percent of wt binding affinity” value [4]?
**A.** ~30 % of wt

**Q.** What about the “percent of wt binding affinity” value [5] of the same binder?
**A.** ~30 % of wt

**Q.** And the “percent of wt binding affinity” value [6]?
**A.** ~30 % of wt

**Q.** What about the “percent of WT affinity” value [7] of the same binder?
**A.** < 20 % of WT affinity

**Q.** And the “percent of WT affinity” value [8]?
**A.** < 20 % of WT affinity

**Q.** What about the “percent of wt binding affinity” value [9] of the same binder?
**A.** ~30 % of wt

**Q.** What about the “percent of WT affinity” value [10] of the same binder?
**A.** < 20 % of WT affinity

**Q.** And the “percent of WT affinity” value [11]?
**A.** < 20 % of WT affinity

**Q.** What about the “percent of wt binding affinity” value [12] of the same binder?
**A.** ~30 % of wt
